Source: US20050013808A1, “Nitroreductase enzymes” (priority 2001, published 2005)
Positions count from the first letter of the chain named. In names and notes the source's numbering stands. Several values for one entry are separate records, joined by “and”; a condition that tells them apart may be missing. Equal values may be shown once.

B1: T41L: NTR mutant, threonine 41 to leucine (protein)
chain: MDIISVALKRHSTKAFDASKKLTPEQAEQIKTLLQYSPSSLNSQPWHFIVASTEEGKARVAKSAAGNYVFNERKMLDASHVVVFCAKTAMDDVWLKLVVDQEDADGRFATPEAKAANDKGRKFFADMHRKDLHDDAEWMAKQVYLNVGNFLLGVAALGLDAVPIEGFDAAILDAEFGLKEKGYTSLVVVPVGHHSVEDFNATLPKSRLPQNITLTEV
B2: T41G (protein)
chain: B1 chain with L41G
B3: Y68G F124W (protein)
chain: B1 chain with L41T, Y68G, F124W
B4: Y68G F124Q (protein)
chain: B1 chain with L41T, Y68G, F124Q
B5: F124S (protein)
chain: B1 chain with L41T, F124S
B6: G120S (protein)
chain: B1 chain with L41T, G120S
B7: F124A (protein)
chain: B1 chain with L41T, F124A
B8: S40G (protein)
chain: B1 chain with S40G, L41T
B9: S40T (protein)
chain: B1 chain with S40T, L41T
B10: N71S (protein)
chain: B1 chain with L41T, N71S
B11: Y68N (protein)
chain: B1 chain with L41T, Y68N
B12: G120A (protein)
chain: B1 chain with L41T, G120A
B13: F124M (protein)
chain: B1 chain with L41T, F124M
B14: F124G (protein)
chain: B1 chain with L41T, F124G
B15: F124Y (protein)
chain: B1 chain with L41T, F124Y
B16: F124W (protein)
chain: B1 chain with L41T, F124W
B17: Y68C (protein)
chain: B1 chain with L41T, Y68C
B18: Y68A (protein)
chain: B1 chain with L41T, Y68A
B19: S40A (protein)
chain: B1 chain with S40A, L41T
B20: F124T (protein)
chain: B1 chain with L41T, F124T
B21: F124C (protein)
chain: B1 chain with L41T, F124C
B22: Y68S (protein)
chain: B1 chain with L41T, Y68S
B23: F124Q (protein)
chain: B1 chain with L41T, F124Q
B24: F124V (protein)
chain: B1 chain with L41T, F124V
B25: Y68W (protein)
chain: B1 chain with L41T, Y68W
B26: N71D (protein)
chain: B1 chain with L41T, N71D

Tested on: not listed separately
Experiment: Steady state kinetics of purified NTR, variable substrate NADH
Assay type: biochemical
Details: fixed substrate nitrofurazone
Protocol: (§1) Wild type NTR and selected mutants were purified as described by Lovering et al., 2001. Steady state kinetic studies were carried out by monitoring the disappearance of nitrofurazone ( ? =12,960, Zenno, et al., 1994) and nitrofurantoin ( ? =12,020, McOsker, et al., 1992) at 420 nm or the disappearance of reduced benzoquinone ( ? =18,5000), 2-nitrofuran ( ? =10,250, McOsker, et al., 1992), 2-nitrobenzamide ( ? =9,750, McOsker, et al., 1992) and 4 nitrobenzamide ( ? =9,720, McOsker, et al., 1992) at 300 nm. The formation of the 4 hydroxylamine product of CB1954 reduction was monitored at 420 nm ( ? =7900, Richard Knox, personal communication).
(§2) All reactions were performed in quartz cuvettes with either a 0.1-, 0.5-, or 1-cm pathlength. In all cases the reaction was initiated by the addition of a small amount of cold enzyme solution to the reaction mix. Assays were performed in 10 mM Tris HCL pH 7.0. The temperature of each reaction was maintained at 25° C. by means of a circulating water bath. All substrates examined were dissolved in DMSO, with the final concentration of organic solvent not exceeding 4% (v/v), concentrations>5% (v/v) give definable enzyme inhibition. In all assay the final DMSO concentration was at 4%. All steady state data were collected in an aerobic environment. Kinetic data were collected at concentration ranges extending from 0.1 of Km to the maximum possible concentration permitted by substrate solubility or optical absorbance. In all cases maximum substrate concentrations exceeded 5×Km. All data was analysed using the commercial package Sigma Plot™ and fit with non-linear regression to a rectangular hyperbola of the form: y=ax/b+x
In the case of B1, the kcat is reported as 35.18 ± 0.583 s⁻¹.

Same assay, conditions: fixed substrate nitrofurazone, 10 mM Tris HCl pH 7.0, 25° C., 4% DMSO
Molecule B1 has a Km of 5 ± 2 µM.

Tested on: not listed separately
Experiment: Steady state kinetics of purified NTR, variable substrate nitrofurazone
Assay type: biochemical
Details: fixed substrate NADH
Protocol: as §1, §2
Molecule B1 has a Km of 79 ± 11 µM and a kcat of 35.14 ± 0.612 s⁻¹.

Tested on: UT5600 cells (NTR−) lysogens
Experiment: Survival curve (colony count) IC50 of CB1954 in NTR-expressing lysogens
Assay type: cell-based, E. coli
Details: concentration of CB1954 giving 50% reduction in colony number after 36h growth; lysogen expressing the named NTR
Protocol: To quantify the improvement in NTR activity in the clones in a less subjective way, a few clones were selected for further study by determining their survival curves. The lysogens were grown overnight in LB +kanamycin and diluted to approximately 1 cell per μl based on the OD. In duplicate, 100 μl diluted cells were plated into Tris-buffered LB plates containing kanamycin, IPTG and 0-400 μM CB1954. After 36h growth the number of colonies on each plate were counted and expressed as a percentage of the number present on the plates with no CB1954. Survival curves showing % survival versus concentration of CB 1954 were plotted (see examples in FIG. 7) and the IC50 determined as the concentration of CB 1954 which kills gives a 50% reduction in colony number (Table 3 and FIG. 8). A few clones containing mutations resulting in an enhanced sensitivity to CB 1954 were selected for further study.
In the case of B1, the IC50 is reported as 38 µM. With B2 the IC50 was 120 µM. Molecule B3 has an IC50 of 69 µM. For B4, the IC50 was 143 µM. Work on B5 yielded an IC50 of 41 µM. In the case of B6, the IC50 is reported as 125 µM. For B7, the IC50 was 20 µM and 32 µM. B8 showed an IC50 of 90 µM. In the case of B9, the IC50 is reported as 102 µM. In the case of B10, the IC50 is reported as 55 µM. For B11, the IC50 was 79 µM. B12 gave an IC50 of 160 µM. With B13 the IC50 was 33 µM. For B14, the IC50 was 49 µM. For B15, the IC50 was 66 µM. For B16, the IC50 was 56 µM. Molecule B17 has an IC50 of 105 µM. With B18 the IC50 was 81 µM. For B19, the IC50 was 100 µM and 84 µM. With B20 the IC50 was 56 µM and 87 µM. Molecule B21 has an IC50 of 36 µM. Molecule B22 has an IC50 of 96 µM. For B23, the IC50 was 39 µM. In the case of B24, the IC50 is reported as 37 µM and 53 µM. Work on B25 yielded an IC50 of 108 µM. B26 gave an IC50 of 110 µM.

Tested on: UT5600 cells (NTR−) lysogens
Experiment: Replica-plate screening of mutant NTR-expressing lysogens on increasing CB1954 (growth score)
Assay type: cell-based, E. coli
Parameters: key to Score: 0: Good growth on all concentrations of CB 1954 = vector; Good growth on 100 and 200, faint on 300, ring of growth on 400 μM; Good growth on 100 and 200, ring growth on 300, none or very faint on 400 μM; Good growth on 100, faint to good on 200, none or very faint on 300 and 400 μM; 4: Good growth on 100 μM, none to ring growth on 200 μM = wild type; Good growth on 50 μM, ring on 100 μM, none on 200, 300 or 400 μM; 6: Faint growth on 50 μM, ring on 100 μM; 7: Good growth on 50 μM, none on 100 μM; 8: Ring growth on 50 μM, none on 100 μM; 9: None or very faint growth on 50 μM, none on 100 μM; 10: None or ring growth on 35 μM
Details: CB1954
Protocol: The ligation mix was packaged (Stratagene) into lambda bacteriophage particles that were used to infect UT5600 cells (NTR ^−). As a control wild type NTR was also cloned into this vector (JG16C2). Kanamycin resistant lysogens were selected on agar plates ([…] kanamycin) then individually grown overnight in a well of a 96-well plate in LB+Kanamycin. The clones were replica plated on to a series of plates containing Tris-buffered (50 mM, pH 7.5) LB agar with kanamycin, IPTG (0.1 mM) and CB1954 at a concentration of 0, 25, 35, 50, 100, 200, 300 or 400 μM (see FIG. 3). […]
For B5, the “nitroreductase activity with CB1954 compared with wild-type” value (shortened to “nitroreductase activity with CB1954”) was “substantially greater activity with CB 1954 than the wild-type”. With B7 the “nitroreductase activity with CB1954” value was “substantially greater activity with CB 1954 than the wild-type”. In the case of B13, the “nitroreductase activity with CB1954” value is reported as “substantially greater activity with CB 1954 than the wild-type”. With B14 the “nitroreductase activity with CB1954” value was “substantially greater activity with CB 1954 than the wild-type”. In the case of B15, the “nitroreductase activity with CB1954” value is reported as “substantially greater activity with CB 1954 than the wild-type”. In the case of B16, the “nitroreductase activity with CB1954” value is reported as “substantially greater activity with CB 1954 than the wild-type”. For B20, the “nitroreductase activity with CB1954” value was “substantially greater activity with CB 1954 than the wild-type”. For B21, the “nitroreductase activity with CB1954” value was “substantially greater activity with CB 1954 than the wild-type”. With B23 the “nitroreductase activity with CB1954” value was “substantially greater activity with CB 1954 than the wild-type”. In the case of B24, the “nitroreductase activity with CB1954” value is reported as “substantially greater activity with CB 1954 than the wild-type”.

Same assay, conditions: growth of lysogens on agar with kanamycin, IPTG and 0-400 μM CB1954; wild type = 4, higher = more sensitive
With B1 the Score was 5-7. For B2, the Score was 5-7. In the case of B3, the Score is reported as 5-7. B4 showed a Score of 4. With B5 the Score was 7-9. For B6, the Score was 4-6. For B7, the Score was 7-9. Molecule B8 has a Score of 5. For B9, the Score was 5. Work on B10 yielded a Score of 7. For B11, the Score was 5-7. For B12, the Score was 4-5. B13 showed a Score of 9. Work on B14 yielded a Score of 7. For B15, the Score was 5-7. In the case of B16, the Score is reported as 5-7. B17 gave a Score of 5. For B18, the Score was 5-7. With B19 the Score was 5-7. With B20 the Score was 7-9 and 7-8. With B21 the Score was 7-9. For B22, the Score was 5-7. Work on B23 yielded a Score of 8. In the case of B24, the Score is reported as 7-9. In the case of B25, the Score is reported as 4-5. Work on B26 yielded a Score of 5.

Tested on: not listed separately
Experiment: Steady state kinetics of purified NTR, variable substrate CB1954
Assay type: biochemical
Details: second substrate CB1954; nucleotide NADH
Protocol: as §1, §2
With B1 the “kinetic parameters compared with wild type” value was “best bimolecular rate constant vs. the second substrate”.

Same assay, conditions: variable substrate CB1954, fixed substrate NADH
For B1, the Km was 871 ± 77 µM and the kcat was 16.2 ± 1.37 s⁻¹.
